# Measurements published in patent US10428140B2, “Anti-EphA4 antibody” (EISAI R&D MANAGEMENT CO., LTD., priority 2015, dated 2019).
# B1: antibody A: mouse anti-EphA4 monoclonal antibody, IgG1/κ; heavy chain variable region SEQ ID NO: 11, light chain variable region SEQ ID NO: 13 (antibody, listed as Mus musculus, V domains shown)
# VH: QIQLVQSGPELKKPGETVKISCKASGYTFTDYSMHWVKQAPGKGLKWMGWINTETGEPTYADDFKGRFAFSLETSASTAYLQINNLKNEDTATYFCARIPLYYYGSRYWYFDVWGAGTTVTVSS
# VL: DIQMTQSPASLSVSVGETVTITCRASENIYRNLAWYQQKQGKSPQLLVYAATNLADGVPSRFSGSGSGTQYSLKINSLQSEDFGSYYCQHFWGTPWTFGGGTKLEIK
# Columns and labels:
# [1] = tested on: human Eph receptor (EphA1-A8, A10, EphB1-B4, B6); experiment: Selectivity ELISA for human Eph receptor family; format: binding; settings: antibody 10 μg/mL
# Description: According to the method described in Example 1, a DNA sequence encoding the signal sequence and the extracellular region of each human Eph receptor (EphA1, EphA2, EphA3, EphA4, EphA5, EphA6, EphA7, EphA8, EphA10, EphB1, EphB2, EphB3, EphB4, and EphB6) was amplified by RT-PCR using tissue-derived total RNA and cloned into a pENTR1A vector (Invitrogen/Life Technologies) having a DNA sequence encoding a human IgG1 Fc region and histidine tag. Next, the DNA sequence encoding the signal sequence and the extracellular region of each human Eph receptor, Fc, and histidine tag was transferred to a pcDNA3.1_rfcB vector through LR reaction using Gateway System (Invitrogen/Life Technologies) to construct a vector for the expression of a protein of the extracellular region of each human Eph receptor fused with the human IgG1 Fc region and the His tag (referred to as “Eph receptor extracellular region-Fc-His protein”) (this vector is referred to as “Eph receptor extracellular region-Fc-His protein expression vector”). […]
# Antibody A was evaluated for its binding activity against each human Eph receptor according to the following steps.
# (§1) Each well of a 96-well plate (Nunc) was coated with a donkey anti-human IgG antibody (Jackson ImmunoResearch Laboratories). […] The absorbance at 450 nm was read using a microplate reader (PerkinElmer).
# [2] = tested on: mouse Eph receptor (EphA1-A8, A10, EphB1-B4, B6); experiment: Selectivity ELISA for mouse Eph receptor family; format: binding; settings: antibody 10 μg/mL
# Description: According to the method described in Example 1, a DNA sequence encoding the signal sequence and the extracellular region of each mouse Eph receptor (EphA1, EphA3, EphA4, EphA5, EphA6, EphA7, EphA8, EphA10, EphB1, EphB2, EphB3, EphB4, and EphB6) was amplified by RT-PCR using tissue-derived total RNA and cloned into a pENTR1A vector (Invitrogen/Life Technologies) having a DNA sequence encoding a human IgG1 Fc region and histidine tag. Next, the DNA sequence encoding the signal sequence and the extracellular region of each mouse Eph receptor (EphA1, EphA3, EphA4, EphA5, EphA6, EphA7, EphA8, EphA10, EphB1, EphB2, EphB3, EphB4, and EphB6), Fc, and histidine tag was transferred to a pcDNA3.1_rfcB vector through LR reaction using Gateway System (Invitrogen/Life Technologies) to construct each mouse Eph receptor extracellular region-Fc-His protein expression vector. […]
# Antibody A was evaluated for its binding activity against each mouse Eph receptor according to the following steps.
# as §1
molecule,measurement,setting,value
B1,binding specificity among human Eph receptor family (in words),[1],specifically had reaction activity only with human EphA4
same,binding specificity among mouse Eph receptor family (in words),[2],specifically had reaction activity only with mouse EphA4
